Assay results reported in US20040048327.

Experiments:
[1] = target: T1, Cbz-Leu-ALeu-(2S, 3S)-EP-COOEt
T1 chain: LL

[2] = target: T2, PhPr-Val-Ala-AAsp-trans-EP-COOCH2Ph
T2 chain: VAD

[3] = target: T3, Cbz-Phe-ALeu-trans-EP-CH2CH2Ph
T3 chain: FL

[4] = target: T4, Boc-Nle-AHph-trans-EP-COOEt
T4 chain: XX

[5] = target: T5, Boc-Abu-AHph-trans-EP-CH2CH2Ph
T5 chain: XX

[6] = target: T6, Cbz-Ala-Ala-AAsn-cis-EP-COOEt
T6 chain: AAN

[7] = target: T7, PhPr-Val-Ala-AAsp-trans-EP-CH2CH2Ph
T7 chain: VAD

[8] = target: T8, Cbz-Asp-Glu-Val-AAsp-(2S, 3S)-EP-COOEt (not fully specified)
T8 chain: DEVD

[9] = target: T9, Boc-Nva-AHph-trans-EP-COOEt
T9 chain: XX

[10] = target: T10, Suc-Np2-ALeu-trans-EP-COOEt
T10 chain: XL

[11] = target: T11, Cbz-Leu-Leu-ALeu-trans-EP-COOEt
T11 chain: LLL

[12] = target: T12, Cbz-Phe-APhe-trans-EP-CH2CH2Ph
T12 chain: FF

[13] = target: T13, Cbz-Leu-AAbu-trans-EP-COOH
T13 chain: LX

[14] = target: T14, Cbz-Leu-ALeu-trans-EP-COOEt
T14 chain: LL

Ac-AHph-trans-EP-COOEt = target: T15, Ac-AHph-trans-EP-COOEt
T15 chain: X

[15] = target: T16, Cbz-Ala-Ala-AAsn-trans-EP-COOEt
T16 chain: AAN

[16] = target: T17, Cbz-Asp-Glu-Val-AAsp-(2R, 3R)-EP-COOEt (not fully specified)
T17 chain: DEVD

Cbz-APhe-trans-EP-COOEt = target: T18, Cbz-APhe-trans-EP-COOEt
T18 chain: F

[17] = target: T19, Cbz-Leu-Glu-Thr-AAsp-(2S, 3S)-EP-COOEt
T19 chain: LETD

[18] = target: T20, Cbz-Ala-Ala-AAsn-(2R, 3R)-EP-COOEt
T20 chain: AAN

Cbz-AHph-trans-EP-COOEt = target: T21, Cbz-AHph-trans-EP-COOEt
T21 chain: X

[19] = target: T22, Cbz-Ala-Ala-AAsn-(2S, 3S)-EP-COOEt
T22 chain: AAN

[20] = target: T23, Ac-Leu-AHph-trans-EP-COOEt
T23 chain: LX

[21] = target: T24, Cbz-Leu-AAbu-trans-EP-COOEt
T24 chain: LX

[22] = target: T25, Cbz-Leu-Leu-ALeu-(2S, 3S)-EP-COOEt
T25 chain: LLL

[23] = target: T26, Cbz-Ala-Ala-NHN(CH2COOEt)-trans-EP-COOEt
T26 chain: AAD

[24] = target: T27, Cbz-Leu-AHph-cis-EP-COOEt
T27 chain: LX

[25] = target: T28, Cbz-Leu-Phe-AGln-trans-EP-COOEt
T28 chain: LFQ

[26] = target: T29, Cbz-Leu-AHph-(2R, 3R)-EP-COOEt
T29 chain: LX

[27] = target: T30, Cbz-Phe-ALeu-trans-EP-COOEt
T30 chain: FL

[28] = target: T31, Ac-Leu-ALeu-trans-EP-COOEt
T31 chain: LL

[29] = target: T32, Boc-Nle-AHph-trans-EP-CH2CH2Ph
T32 chain: XX

[30] = target: T33, Cbz-Leu-Glu-Thr-AAsp-(2R, 3R)-EP-COOEt
T33 chain: LETD

[31] = target: T34, Cbz-Leu-Leu-ALeu-(2R, 3R)-EP-COOEt
T34 chain: LLL

Cbz-ALeu-trans-EP-COOEt = target: T35, Cbz-ALeu-trans-EP-COOEt
T35 chain: L

[32] = target: T36, Cbz-Leu-AHph-(2S, 3S)-EP-COOEt
T36 chain: LX

[33] = target: T37, Boc-Np2-ALeu-trans-EP-COOEt
T37 chain: XL

[34] = target: T38, Cbz-Leu-Leu-ALeu-(2S, 3S)-EP-COOH
T38 chain: LLL

[35] = target: T39, Cbz-Leu-ALeu-(2R, 3R)-EP-COOEt
T39 chain: LL

[36] = target: T40, Cbz-Leu-ALeu-cis-EP-COOEt
T40 chain: LL

[37] = target: T41, Cbz-APhe-trans-EP-CH2CH2Ph
T41 chain: F

B1: papain (protein)
chain: IPEYVDWRQKGAVTPVKNQGSCGSCWAFSAVVTIEGIIKIRTGNLNEYSEQELLDCDRRSYGCNGGYPWSALQLVAQYGIHYRNTYPYEGVQRYCRSREKGPYAAKTDGVRQVQPYNEGALLYSIANQPVSVVLEAAGKDFQLYRGGIFVGPCGNKVDHAVAAVGYGPNYILIKNSWGTGWGENGYIRIKRGTGNSYGVCGLYTSSFYPVKN
Q: What does the source list for B1?
A: kobs/[I] [1]: 10.5 M⁻¹ s⁻¹; kobs/[I] [2]: < 10 M⁻¹ s⁻¹; kobs/[I] [3]: 0.7 M⁻¹ s⁻¹; kobs/[I] [4]: 1.6 M⁻¹ s⁻¹; kobs/[I] [5]: 0.2 M⁻¹ s⁻¹; kobs/[I] [6]: NI; kobs/[I] [7]: NI; kobs/[I] [8]: NI; kobs/[I] [9]: 1.4 M⁻¹ s⁻¹; kobs/[I] [10]: 1.39 M⁻¹ s⁻¹; kobs/[I] [11]: 34.8 M⁻¹ s⁻¹; kobs/[I] [12]: 0.5 M⁻¹ s⁻¹; kobs/[I] [13]: 1.47 M⁻¹ s⁻¹; kobs/[I] [14]: 6.37 M⁻¹ s⁻¹; kobs/[I] (Ac-AHph-trans-EP-COOEt): 26.9 M⁻¹ s⁻¹; kobs/[I] [15]: 0.9 M⁻¹ s⁻¹; kobs/[I] [16]: NI; kobs/[I] (Cbz-APhe-trans-EP-COOEt): 8.5 M⁻¹ s⁻¹; kobs/[I] [17]: 0.47 M⁻¹ s⁻¹; kobs/[I] [18]: 3 M⁻¹ s⁻¹; kobs/[I] (Cbz-AHph-trans-EP-COOEt): 18.8 M⁻¹ s⁻¹; kobs/[I] [19]: 4 M⁻¹ s⁻¹; kobs/[I] [20]: 1.9 M⁻¹ s⁻¹; kobs/[I] [21]: 4.94 M⁻¹ s⁻¹; kobs/[I] [22]: 10.5 M⁻¹ s⁻¹; kobs/[I] [23]: 8.17 M⁻¹ s⁻¹; kobs/[I] [24]: 1.03 M⁻¹ s⁻¹; kobs/[I] [25]: 0.9 M⁻¹ s⁻¹; kobs/[I] [26]: 2.16 M⁻¹ s⁻¹; kobs/[I] [27]: 0.91 M⁻¹ s⁻¹; kobs/[I] [28]: 2.09 M⁻¹ s⁻¹; kobs/[I] [29]: 0.5 M⁻¹ s⁻¹; kobs/[I] [30]: 0.24 M⁻¹ s⁻¹; kobs/[I] [31]: 20.6 M⁻¹ s⁻¹; kobs/[I] (Cbz-ALeu-trans-EP-COOEt): 16.1 M⁻¹ s⁻¹; kobs/[I] [32]: 5.68 M⁻¹ s⁻¹; kobs/[I] [33]: 3.9 M⁻¹ s⁻¹; kobs/[I] [34]: 6.93 M⁻¹ s⁻¹; kobs/[I] [35]: 6.7 M⁻¹ s⁻¹; kobs/[I] [36]: 0.38 M⁻¹ s⁻¹; kobs/[I] [37]: 0.92 M⁻¹ s⁻¹
